Data as given in article PMC5756113 (Peptides, 2017).

Assays:
[1] = mouse, in vivo
[2] = in vivo, cited from earlier work
[3] = mouse, in vivo; remark: listed apart in the source

I-PACAP38: 38-amino acid form of PACAP (Bachem) radioactively labeled with 125I by the lactoperoxidase method
%Inj/g in cerebellum (average) [1]: 0.37 %Inj/g
Amount of I-PACAP38 to enter the brain (value calculated here) [1]: 0.15 %Inj/g
I-PACAP38 %Inj/g in the ipsilateral cortex, CCI compared to Sham [1]: nearly a doubling
Rate of PACAP38 transport across the mouse BBB [2]: 2.86 µL/g/min
Amount of I-PACAP38 to enter the brain ([2]; mouse): 0.119 %Inj/g
Vi previously reported ([2]; mouse): 18.5 µL/g
Average rate of I-PACAP38 transport into whole brain in the No-Sham Controls [3]: 2.35 µL/g/min
Average rate of transport into the whole brain for all groups [3]: 2.98 µL/g/min
Increase in the Vi, CCI versus Sham [3]: 1.4 fold
Transport rate in cerebellum compared to the cortices and whole brain [3]: ~2 fold

Pituitary adenylate cyclase-activating polypeptide 38 [PACAP38, reference compound]
Rate of PACAP38 transport across the mouse BBB [2]: 2.86 ± 0.57 µL/g/min
Half-time disappearance of PACAP38 from the blood ([2]; mouse): 0.82 min
Increase in the rate of transport at 72 hours post-CCI compared to the 2 hour time point [3]: 2–3 fold
